Results: patent publication US20240325557A1, “TREATMENT OF CANCER” (INNATE PHARMA, priority 2020, published 2024)
Like-named read-outs stand apart in the source and are kept apart here.

Columns and labels:
wild-type human Nectin-4 = target: T1, wild-type human Nectin-4 (Homo sapiens, UniProt Q96NY8); test: Flow cytometry binding to wild-type Nectin-4 expressing CHO cells
T1 construct: expressed in transfected cells; host or cells: CHO (huNectin4 Cl.3C8)
T1 sequence (Q96NY8 32-510): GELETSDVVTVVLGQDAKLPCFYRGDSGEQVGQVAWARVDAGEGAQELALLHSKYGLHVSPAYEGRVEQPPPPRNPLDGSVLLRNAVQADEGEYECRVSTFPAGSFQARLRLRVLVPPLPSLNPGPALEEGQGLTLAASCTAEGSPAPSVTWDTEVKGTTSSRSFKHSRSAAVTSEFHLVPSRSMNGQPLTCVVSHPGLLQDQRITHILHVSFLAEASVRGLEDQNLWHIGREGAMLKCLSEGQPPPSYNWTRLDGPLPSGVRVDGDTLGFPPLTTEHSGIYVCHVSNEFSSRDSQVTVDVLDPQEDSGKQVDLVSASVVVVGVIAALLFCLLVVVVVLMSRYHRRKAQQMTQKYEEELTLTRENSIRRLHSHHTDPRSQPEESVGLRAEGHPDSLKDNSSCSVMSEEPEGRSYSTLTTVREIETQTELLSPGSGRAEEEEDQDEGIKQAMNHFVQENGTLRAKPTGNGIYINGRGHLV
Method: plates of hybridoma supernatants were tested for binding on the wild-type human Nectin-4 expressing CHO cell line by flow cytometry. Briefly, Nectin-4 expressing cells were used at 0.2×10^6 cells by well in a buffer of PBS, BSA 0.5%, EDTA 5 mM. The first antibody was incubated with cells for 1h at +5±3° C. in 50 μL of supernatant. […] Acquisition HTFC flow cytometer (Intellicyt), with data analysis on ForeCyt™ software.
The characterization of the binding of the antibodies on Nectin-4 domains was performed by flow cytometry using cells made to express the wild-type human Nectin-4 protein and cells made to express a modified Nectin-4 having the Ig-like C2 type 1 and the Ig-like C2 type 2 domains and lacking the Ig-like V domain (the C1C2 construct). The latter protein additionally bears a V5 tag for flow cytometry cell sorting, and cells were used as Nectin4-C1C2-V5 sorted cells.
Wild-type Nectin-4 (the CI.3C8 cell line), a C2 construct (containing the Ig-like C2 type 2 domain and lacking both the V and the C1 domains) and the C1C2 construct allow the determination of whether test antibodies bind to the V or different C domains. Briefly, nucleic acid sequences encoding different human Nectin-4 domains were amplified by PCR. The PCR products were inserted into an expression vector at appropriate restriction sites. […] The amino acid sequences of the resulting different human Nectin-4 domain fragment-containing proteins are shown below (V5 tag underlined). The vectors were then transfected into the CHO cell line to obtain stable clones expressing the different Nectin-4 domain proteins at the cell surface.

[1] = target: T2, Nectin-4 Mutant 2 (V90S/P92A/A93S/E95A/G96D) (Homo sapiens, UniProt Q96NY8, A93S/E95A/G96D/P92A/V90S); test: Binding to cell surface expressed Nectin-4 point mutant; details: HEK-293T
T2 construct: expressed in transfected cells; host or cells: HEK293T
T2 sequence (Q96NY8 32-510 V90S/P92A/A93S/E95A/G96D): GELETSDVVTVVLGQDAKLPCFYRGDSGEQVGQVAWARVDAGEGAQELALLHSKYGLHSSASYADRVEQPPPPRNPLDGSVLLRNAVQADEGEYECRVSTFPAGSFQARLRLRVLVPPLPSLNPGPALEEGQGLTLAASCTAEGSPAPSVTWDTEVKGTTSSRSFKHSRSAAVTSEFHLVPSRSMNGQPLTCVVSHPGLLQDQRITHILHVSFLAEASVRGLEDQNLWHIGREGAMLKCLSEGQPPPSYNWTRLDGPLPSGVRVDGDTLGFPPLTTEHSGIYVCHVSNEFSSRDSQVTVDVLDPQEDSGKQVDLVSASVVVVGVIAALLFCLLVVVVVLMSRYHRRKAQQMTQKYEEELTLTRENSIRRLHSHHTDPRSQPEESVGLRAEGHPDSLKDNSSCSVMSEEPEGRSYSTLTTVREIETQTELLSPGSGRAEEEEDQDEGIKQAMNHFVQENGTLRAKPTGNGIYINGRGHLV
Text: Combined with the published structures of the Nectin-4 domains, Nectin-4 mutations at surface exposed amino acids residues were designed. Nectin-4 domain structure was modelled based on Protein Data Bank reference: 4FRW (domains V et C1). Human Nectin-4 used was NCBI Reference Sequence: NP_112178.2, mouse Nectin-4 used was NCBI Reference Sequence: AAL79833.1, cynomolgus Nectin-4 used was NCBI Reference Sequence: XP_005541277.1, rat Nectin-4 used was NCBI Reference Sequence: NP_001102546.1. The cells expressing the Nectin-4 mutants are then be used for testing anti-Nectin-4 antibodies for loss of binding to different Nectin-4 mutants to identify antibodies that bind to the same site on Nectin-4. […] FIGS. 12A and 12B show a molecular model of the human Nectin-4 protein, indicating the position of substituted residues in mutants 7 (12A) and in mutants 7bis (12B); these mutants are in the C1 domain identify two sites at the junction of domain C1 and V domain that are on opposing faces of the Nectin-4 protein.
Nectin-4 mutants were generated by PCR. The sequences amplified were run on agarose gel and purified using the Macherey Nagel PCR Clean-Up Gel Extraction kit. The purified PCR products generated for each mutant were then ligated into an expression vector, with the ClonTech InFusion system. The vectors containing the mutated sequences were prepared as Miniprep and sequenced. After sequencing, the vectors containing the mutated sequences were prepared as Midiprep using the Promega PureYield™ Plasmid Midiprep System. HEK293T cells were grown in DMEM medium (Invitrogen), transfected with vectors using Invitrogen's Lipofectamine 2000 and incubated at 37° C. in a CO2 incubator for 48 hours prior to testing for transgene expression. The targeted amino acid mutations are shown in Table 2 below, listing the residue present in wild-type Nectin-4/position of residue/residue present in mutant Nectin-4, with position reference being to the Nectin-4 protein with leader peptide shown in SEQ ID NO: 1.

rat Nectin-4 = test: Flow cytometry species cross-reactivity on CHO cells; format: binding
rat Nectin-4, sequence (as listed by the source): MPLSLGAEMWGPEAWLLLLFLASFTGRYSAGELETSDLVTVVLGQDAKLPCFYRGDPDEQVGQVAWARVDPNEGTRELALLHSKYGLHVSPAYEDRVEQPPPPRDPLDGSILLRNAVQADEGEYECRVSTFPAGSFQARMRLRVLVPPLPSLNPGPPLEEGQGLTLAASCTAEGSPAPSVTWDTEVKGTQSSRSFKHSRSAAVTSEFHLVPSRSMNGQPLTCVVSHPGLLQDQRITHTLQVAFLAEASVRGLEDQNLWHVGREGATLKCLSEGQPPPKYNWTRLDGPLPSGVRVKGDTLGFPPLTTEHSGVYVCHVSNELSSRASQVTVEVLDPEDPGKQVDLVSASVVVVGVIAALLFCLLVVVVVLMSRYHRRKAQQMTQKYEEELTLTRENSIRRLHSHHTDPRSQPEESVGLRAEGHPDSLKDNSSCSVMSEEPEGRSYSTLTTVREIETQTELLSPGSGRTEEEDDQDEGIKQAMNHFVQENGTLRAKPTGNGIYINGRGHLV
Method: Anti-Nectin-4 antibodies were tested by flow cytometry for binding to different CHO cell lines made to express respectively the mouse, cynomolgus and rat Nectin-4 protein (including an N-terminal V5 tag not shown in the sequences below).

Nectin-4 on SUM185 cells = target: T3, Nectin-4 on SUM185 cells (Homo sapiens, UniProt Q96NY8); test: Flow cytometry titration on SUM185 cells; format: binding; details: cells detached with trypsin
T3 construct: host or cells: SUM185
T3 sequence (Q96NY8 32-510): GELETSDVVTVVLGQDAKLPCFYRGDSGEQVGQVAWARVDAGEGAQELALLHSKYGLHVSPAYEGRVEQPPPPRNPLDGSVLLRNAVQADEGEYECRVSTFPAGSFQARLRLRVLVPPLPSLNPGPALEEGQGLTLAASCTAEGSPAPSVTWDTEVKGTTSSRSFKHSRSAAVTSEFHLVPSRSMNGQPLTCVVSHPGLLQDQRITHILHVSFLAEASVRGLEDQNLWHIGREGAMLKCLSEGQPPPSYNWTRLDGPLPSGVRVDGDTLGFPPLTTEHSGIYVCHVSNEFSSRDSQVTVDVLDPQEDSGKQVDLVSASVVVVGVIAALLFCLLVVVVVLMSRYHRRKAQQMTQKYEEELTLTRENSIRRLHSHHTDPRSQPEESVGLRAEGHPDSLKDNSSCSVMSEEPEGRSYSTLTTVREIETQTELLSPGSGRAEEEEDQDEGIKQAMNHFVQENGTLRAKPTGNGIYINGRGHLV
Method: In this experiment, the ability of anti-Nectin-4 Abs to bind to Nectin-4 on SUM185 cells (expressing relatively high levels of Nectin-4) was assessed by flow cytometry. […] Briefly, SUM185 cells were detached from the flask with trypsin (37° C. for 5 min) and then washed once with media. 50 000 cells were incubated with a concentration range of test antibodies starting from 20 μg/ml (8 points, dilution factor 4) for 30 minutes at 4° C. […] Cells were washed twice with ice-cold SB. Acquisition was done on a flow cytometer.

Row | Molecule | binding to whole (wild-type) human Nectin-4 protein (wild-type human Nectin-4) | association with Nectin-4 Mutant 2 [1] | binding to rat Nectin-4 expressing CHO cells (rat Nectin-4) | binding to rat Nectin-4 expressing CHO cells (rat Nectin-4; listed as mAb6) | binding profile on SUM185 cells (Nectin-4 on SUM185 cells) | binding to rat Nectin-4 expressing CHO cells (rat Nectin-4; listed as mAb7)
1 | N41 (antibody, V domains shown) VH: QVQLKQSGPGLVQPSQSLSITCTVSGFSLTNYGVHWVRQSPGKGLEWLGVIWSGGSTDYNAAFISRLSISKDTSKSQVFFKMNSLQADDTAIYYCARELIHAMDNWGQGTSVTVSS VL: DIQMTQSPASLSVSVGETVTITCRASENIYSNLAWYQQKQGNSPQLLVFAATNLADGVPSRFSGSGSGTQYSLKINSLQSEDFGTYYCQHFWGTPTFGGGTKLEIK | bound to the whole Nectin-4 protein | + | – | – | – | –
2 | 5E7 (antibody, V domains shown) VH: QVQLQQPGAELVKPGASVKLSCKASGYIFTSYWMHWVKQRPGQGLEWIGEIDPSDSYTNYNQKFKGKATLTLDKSSSTTYMQLSSLTSEDSAVYYCVRGYGNYGDYWGQGTTLTVSS VL: DVVMTQAAFSNPVTLGTSASISCRSSKSLLHSNGITYLYWYLQKPGQSPQLLIYQMSNLASGVPDRFSSSGSGTDFTLRISRVEAEDVGVYYCAQNLELPWTFGGGTKLEIK | lower plateau | + | showed binding to rat Nectin 4 expressing cells | bind to rat Nectin-4 | lower plateau for binding to the SUM185 cells | –
3 | 10B12: anti-Nectin-4 antibody, VH SEQ ID NO: 24, VL SEQ ID NO: 25, binds junction of domain C1 and V (antibody, listed as Mus musculus, V domains shown) VH: QVQLQQPGAELVKPGASVKLSCKASGYTFTSYWMHWVKQRPGQGLEWIGEIDPSDSYTNYNQKFKGKATLTVDKSSSTAYMQLSSLTSEDSAVYYCVRGYGNYGDYWGQGTTLTVSS VL: DIVMTQAAFSNPVTLGTSASISCRSSKSLLHSNGITYLYWYLQKPGQSPQLLIYQMSNLASGVPDRFSSSGSGTDFTLRISRVEAEDVGVYYCAQNLELPWTFGGGTKLEIK | lower plateau | + | showed binding to rat Nectin 4 expressing cells | – | lower plateau for binding to the SUM185 cells | bind to rat Nectin-4
